From patent US7749968B2, “Peptides for targeting the prostate specific membrane antigen” (The Johns Hopkins University, priority 2002, dated 2010)

Legend:
xPSM [1] = target: T1, xPSM (Homo sapiens, UniProt Q04609); assay: NAAG hydrolysis (NAALADase) assay with purified xPSM; type: biochemical; details: 1, 10 and 100 micromolar; 30 nM NAAG substrate, 37° C., 10 minutes
T1 construct: Purified human xPSM (the extracellular portion of human PSMA); S-tag (cleaved yes); made in house; host or cells: Sf-9 insect cells infected with recombinant baculovirus; released from S-protein agarose by enterokinase
Source text: In another embodiment, the peptide compounds of the invention specifically enhance the enzymatic activity of PSMA. In another embodiment, peptide compounds of the invention may inhibit PSMA activity. Accordingly, the invention provides a method for assaying peptide compounds for the ability to modulate the activity of PSMA. This method is described in detail in Robinson, M. B. et al. (1987) J. Biol. Chem. 262:14498-506, incorporated herein by reference, as well as in Example 6 herein. Purified human xPSM (the extracellular portion of human PSMA) is incubated with a radiolabeled substrate, N-acetyl-L-aspartyl-L-[3,4-^3H]glutamate, plus the peptide compound being tested. Hydrolyzed substrate is then separated from intact substrate (e.g., by anion exchange chromatography) and quantitated to determine whether the test peptide compound was able to modulate PSMA activity.
N-acetyl-aspartyl-glutamate (NAAG) hydrolysis was performed essentially as previously described (Robinson, M. B. et al. (1987) J. Biol. Chem. 262:14498-506, incorporated herein by reference). In short, 65 ng purified xPSM was resuspended in NAALADase Buffer (50 mM Tris, pH 7.4, 0.5% Triton X-100) and incubated in the presence of peptides or inhibitors (1, 10, and 100 micromolar), along with the radiolabeled substrate N-acetyl-L-aspartyl-L-[3,4-^3H]glutamate (NEN Life Science Products, Boston, Mass.) at 30 nM. Reactions were run at 37° C. for 10 minutes. The reaction was then stopped by the addition of an equal volume of ice-cold 100 mM sodium phosphate, 2 mM EDTA. Products were separated from intact substrate using AG 1-X8 Formate resin (BioRad Laboratories, Hercules, Calif.) anion exchange chromatography. The reaction product, tritiated-glutamate, was eluted with 1M sodium formate and quantitated by scintillation counting. Intact NAAG remained in the column resin. Experiments were completed in triplicate and have been repeated. The data represents six data points from two experiments. Experiments were designed to allow 20% or less of the total substrate to be cleaved.

xPSM [2] = target: T1, xPSM; assay: Final phage display round on xPSM bound to microtiter plates; type: binding
Source text: In addition to phage library partitioning by cell binding, a final round of binding was completed on xPSM (Tag-xPSM digested with enterokinase) bound to plastic microtiter plates. This final round was used to ensure that those peptides identified in the LNCaP screen were targeting PSMA and not another unknown surface protein.
Multiple individual phage from rounds three of LNCaP binding and the final round of xPSM binding were isolated, amplified, and sequenced. […] Two sequences are highly represented and are found in both cell and purified protein backgrounds.

Tag-xPSM [3] = target: T2, Tag-xPSM (Homo sapiens, UniProt Q04609); assay: Stringent Tag-xPSM phage display, round 4 acid elution pool; type: binding; details: pH 2.2 pool
T2 construct: made in house; host or cells: Sf-9 insect cells infected with recombinant baculovirus; protein harvested from the media
Procedure: As described above in Example 1, Tag-xPSM was used as a target for the in vitro selection of a commercially available cysteine-constrained heptapeptide phage library. For the initial round, 14 micrograms of S-protein-agarose immobilized Tag-xPSM was incubated with 2×10^11 PFU for 30 minutes at room temperature while rotating. Weakly bound phage were then washed off with three 5 minute rotating washes. One phage pool, referred to herein as the “pH 2.2 pool”, was eluted for ten minutes in pH 2.2 glycine buffer followed by neutralization in Tris buffer. Those phage still bound to Tag-xPSM were then eluted for one hour in 30 mM EDTA-Tris buffer. This pool is referred to herein as the “EDTA pool”. These two pools where then carried separately for the next three rounds. Stringency was increased in each round by changing Tag-xPSM substrate background, decreasing binding time, or increasing washing time (Table 3).
Twelve individual phage from each elution condition for rounds two, three, and four of Tag-xPSM phage display were isolated, amplified, and sequenced. All clones sequenced from rounds 2 and 3 were unique (Tables 4 and 5).

Tag-xPSM [4] = target: T2, Tag-xPSM; assay: Tag-xPSM phage display selection (agarose/cellulose), sequencing of selected phage; type: binding
Procedure: 100 μl of S-protein agarose (2× in RPMI 1640+1% Fetal Bovine Serum (FBS) and 100 μl of CBind Resin (10 mg/ml in RPMI 1640+1% FBS) without fusion protein were used to negatively select the original phage display library. 2×10^11 plaque forming units (PFU) of 1.29×10^9 different sequence phage were incubated with each aliquot of resin for 1 hr at 37° C., while rotating. The S-tag agarose was pelleted and supernatant saved as the agarose counter-selected pool. The cellulose resin was transferred onto 200 μl of 9:1 dibutyl phthalate:cyclohexane and the resin pelleted through the organic phase. The aqueous supernatant was saved as the cellulose counter-selected pool. Each counter selected pool was then added to tag-xPSM agarose or cellulose resin and incubated for 1 hr at 37° C., while rotating. The tag-xPSM agarose was pelleted and washed three times in RPMI 1640+1% FBS. The agarose pellet was then saved for phage isolation. The Tag-xPSM cellulose was transferred onto 200 μl of 9:1 dibutyl phthalate:cyclohexane and the resin pelleted through the organic phase. The tube was then snap frozen in liquid nitrogen to isolate the resin pellet. Over 75% of Tag-xPSM remained bound to the cellulose resin through these conditions. The resulting phage-bound tag-xPSM agarose and tag-xPSM cellulose were then resuspended in 200 μl of log phage ER2738 cells and phage allowed to infect 1 hour at room temperature. A small aliquot was taken at this time to quantitate the number of phage bound per round of selection. The remaining PSMA bound phage was then amplified, tittered, and applied to the next round of phage display. There was only one counter-selection round, followed by a total of five positive selection rounds, applying between 10^10 to 10^11 PFU per round. The final round of selection included cross-selections, where selected phage pools from one PSMA background where applied to the other. Individual phage were isolated and sequenced from rounds three through five.
Individual phage plaques were amplified for 5 hours in ER2738 cells at 37° C. Amplified supernatant was incubated 1:1 with PEG/NaCl buffer (20% PEG 8000, 2.5 M NaCl) for 10 minutes at room temperature. Phage were microfuged 10 minutes at 20,000 g, 4° C. The phage pellet was suspended in 100 μl Iodide buffer (10 mM Tris-HCl, pH 8.0, 1 mM EDTA, 4M NaI). Single stranded DNA (ssDNA) was precipitated with 250 μl of 100% ethanol, pelleted, and washed in 70% ethanol. Each ssDNA pellet was suspended in 30 μl 10 mM Tris, pH 7.4. Each phage was sequenced using the Amersham DYE ET mix, by incubating 6 μl ssDNA, 1 μl of 5 μM-96 pill Sequencing Primer ([…]; SEQ ID NO:108), and 8 μl of DYE ET mix in a 96 well PCR plate and amplified by 30 cycles of 95° C. for 20 seconds, 50° C. for 15 seconds, and 60° C. for 1 minute. Sequencing reaction products were spun through G50-fine Sephadex column plates, prepared on Millipore-multiscreen plates. Products were sequenced and analyzed on the MegaBACE capillary sequencer. All sequences, minus the flanking cysteines, were aligned using the Baylor College of Medicine Clustal W1.8 Global Progressive Alignment (available online) with data presented by Boxshade 3.21 software (available online through the Swiss Institute for Bioinformatics).
2×10^11 plaque-forming units (PFU) of the library was incubated with each aliquot of resin for one hour at 37° C., while rotating. The S-tag agarose was pelleted and the supernatant saved as the agarose counter-selected pool. The cellulose resin was transferred onto a 9:1 ratio of dibutyl phthalate:cyclohexane and the resin centrifuged through the organic phase. The aqueous supernatant was saved as the cellulose counter-selected pool. Each counter selected pool was then added to tag-xPSM agarose or cellulose resin, respectively, and incubated for one hour at 37° C., while rotating (see FIG. 2). The Tag-xPSM agarose was pelleted, washed, and saved for phage isolation. […]

T1 sequence (Q04609 44-750 limits assumed): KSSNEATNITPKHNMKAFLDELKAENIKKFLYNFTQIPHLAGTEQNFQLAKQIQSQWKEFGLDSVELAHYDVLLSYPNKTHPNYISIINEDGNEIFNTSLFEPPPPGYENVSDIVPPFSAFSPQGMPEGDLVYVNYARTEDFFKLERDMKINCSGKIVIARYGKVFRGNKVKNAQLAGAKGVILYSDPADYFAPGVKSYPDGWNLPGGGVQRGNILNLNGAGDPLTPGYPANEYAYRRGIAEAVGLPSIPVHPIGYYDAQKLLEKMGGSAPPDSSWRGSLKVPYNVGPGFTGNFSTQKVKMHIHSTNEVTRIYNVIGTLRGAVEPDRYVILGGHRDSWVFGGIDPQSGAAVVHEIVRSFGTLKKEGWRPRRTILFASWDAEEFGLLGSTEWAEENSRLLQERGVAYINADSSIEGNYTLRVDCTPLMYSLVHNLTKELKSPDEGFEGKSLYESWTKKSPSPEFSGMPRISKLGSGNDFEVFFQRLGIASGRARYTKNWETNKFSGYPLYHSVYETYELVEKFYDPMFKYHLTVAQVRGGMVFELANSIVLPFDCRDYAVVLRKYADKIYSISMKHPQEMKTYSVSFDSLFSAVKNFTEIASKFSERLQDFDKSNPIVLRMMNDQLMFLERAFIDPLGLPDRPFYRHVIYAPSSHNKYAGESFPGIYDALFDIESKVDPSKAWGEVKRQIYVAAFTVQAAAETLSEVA
T2 sequence (Q04609 44-750 limits assumed): as above

## N[C@@H](Cn1oc(=O)[nH]c1=O)C(=O)O [quisqualic acid, reference compound]
xPSM [1]
  Effect on PSMA enzymatic activity: inhibited

## CERNTYRFC [SEQ ID NO:33]
xPSM [2]
  Number of times sequence was found, Round 1 xPSM: 0

## CGSAARNWC [SEQ ID NO:32]
xPSM [2]
  Number of times sequence was found, Round 1 xPSM: 0

## CKSGEVNYC [SEQ ID NO:34]
xPSM [2]
  Number of times sequence was found, Round 1 xPSM: 0

## CLAAPTGKC [SEQ ID NO:30]
xPSM [2]
  Number of times sequence was found, Round 1 xPSM: 12

## CLNTAPLAC [SEQ ID NO:60]
Tag-xPSM [3]
  Share of the round 4 acid elution pool: 83%

## CNKAALGTC [SEQ ID NO:31]
xPSM [2]
  Number of times sequence was found, Round 1 xPSM: 1

## CPQPASRQC [SEQ ID NO:36]
xPSM [2]
  Number of times sequence was found, Round 1 xPSM: 1

## CQKHHNYLC [SEQ ID NO:1]
Tag-xPSM [4]; Agarose
  Number of times sequence was found, Round 3: 0/0
  Number of times sequence was found, Round 4: 0/0
  Number of times sequence was found, Round 5: 0
Tag-xPSM [4]; Cellulose
  Number of times sequence was found, Round 3: 0/0
  Number of times sequence was found, Round 4: 0/0
Tag-xPSM [4]; asterisk: cross-selected, agarose pool selected on cellulose (final resin)
  Number of times sequence was found, Round 5: 12
xPSM [1]
  Effect on PSMA enzymatic activity: enhanced

## CTLVPHTRC [SEQ ID NO:3]
Tag-xPSM [4]; Agarose
  Number of times sequence was found, Round 3: 0/0
  Number of times sequence was found, Round 4: 13/13
  Number of times sequence was found, Round 5: 0
Tag-xPSM [4]; Cellulose
  Number of times sequence was found, Round 3: 0/0
  Number of times sequence was found, Round 4: 13/13
  Number of times sequence was found, Round 5: 2
xPSM [1]
  Effect on PSMA enzymatic activity: enhanced

## CTNPNMHHC [SEQ ID NO:35]
xPSM [2]
  Number of times sequence was found, Round 1 xPSM: 0

## CTYNPSRWC [SEQ ID NO:29]
xPSM [2]
  Number of times sequence was found, Round 1 xPSM: 7
